From the domain aggregation screens of Martell et al. (2025)

Test: soluble fraction after stress (log2 fold change); higher = more stays soluble; pooled small domains, quantitative proteomics
Conditions: stress: 75 degC
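Note: 20 min heating vs room temperature control held 20 min.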

Row | Sequence | soluble fraction (log2)
1 | HMTPDVHRGDTITVSLRAGAIRVRVPAKALEEGAAGGEIRVVNLTGGREYRVRVTGPGTAEAIL | -0.966
2 | HMAVLEGPAGKLGIVRFEANRSFTGMGHERFSSADQAFGTKPAAVVASRLFATGQVAGVHVYGNIITVELA | 0.632
3 | HMQLPTPEDLKKRRNELGLTQSDLAKRAGVSQPLIARIESGDVDPRLSTVRKILDAFEEVEKEQQ | 0.0518
4 | HMKELTARQIEILDFITNYEWRHGYWPSIRNIQVQFSYKSTNAVMGHLRALERKGAIERIPGQARTFRIH | -3.53
5 | HMIVVMAADSSREDLDLVQGRIEARGLRAQISQGVERIVIGVLGSLPPDLKDEMELLPGVREVLVIS | -1.57
6 | HMHNQIGDKIRELRTRSNLTQADLGKLVGVSMQAVSKWERGGTPDIDVLLSVAKYFNISLDEMVGRT | -1.51
7 | HMTGSLRVTSSPSGAEIYVDEIYRGYTPLTIGSLSTGRHEVRLHLSGYQDYTRTVEIESGSQSSFSVTLT | -1.46
8 | HMPRKLDDQLQEQIRYLKSNYPRMSAAGIFRQLQDNGSIKHGDVSESTINRYVNLLSIEMKTTT | -0.395
9 | HMTMKNPNGYGSVINLGKGRRRPWAARVTTGLVYDEKKDKLIQRYKYIGYADTRKEAHQILAEYNAGLPI | -1.76
10 | HMWSGEPFLDELRHADTLLETDPEAALAEYRALADKGSAAAMMALGNAYASGSHVARDEGEAEHWYRRAA | 0.0377
11 | HMEALDPLTAREQEVLEMILSGKSNREIAAELHITENTVKTHAQSIYSKYDVRGRAKLISLLLKGEA | -0.406
12 | HMRTFFEIEQLKAYVGEEIQVKFEADSHKQTVLGKLISISEDFIEIENSKKGNLKISLDNYLTSKLIY | -2.23
13 | HMKTTSYAKLLRFLRTERDLSQITVAKQLGLSRASYLALEHGSRELSLSEAVKVTTLYGIRIDDLIVNH | -3.35
14 | HMAEAETVKFVGNSLLLVSGAAKGERLSVYTVGGQHVLSADATKPVDVAALHSGVYVVRTTNGVITKIVK | -1.25
15 | HMDASSTGFLGKHVQIVGLVSQPHLNGRRGVASRFDSNRRRYLVRLDEIDGHAEVVAFRPDNLVLSNLL | -0.627
16 | HMLTLEDMTRINSIISPRIKKGQSLYHIAKNNGDELNISESTLRRLVMTGEMDAGIIDLPQAVK | -0.00636
17 | HMVPAMGSLTLIKGGVNLRNAPGGLTIAQLDRGLVLSYTKFVQKDGYTWYLVNSPKGTGYVRSDVVQLGS | -2.58
18 | HMINLTKVGNFISIIKLQQIWTIDELLKKVDINYDELLYLLTILSDIYSKNGEYFFDFDIDAENNKILFNN | 0.0266
19 | HMLKLYILTDGKNYVMDDPIHPGRVMYSTSPVNAKKFTFKQARALLNNKSKKLSWIRSFNMVDDSSGEKI | -1.44

Row | Sequence | soluble fraction (log2)
20 | HMPYEHQRAVGALIRRLREQQGWSQRALADWVHMDQSAVSRVETGQRSVTAEELGRFADALHVSTDALVR | -0.263
21 | HMQERKYTVSFNTNGGSTINDQKITSGNVIISPGAPKRSGYTFVGWYYHGQPFDLNTKINQDYVLVAKWIK | -2.49
22 | HMDESIPVITYKDSVYANPKAFADAHKLPYKSLHNALSKARKEGKVRFMYKQYNFHLDNNGYIVAVS | -1.22
23 | HMRAGEAVTGQVIGVKEDEIILSIAGSKSEGIITRSEFTNEPNVDLTTKVSVGDELEVKVLKVNDGEGMAS | -0.317
24 | HMTTLLNHLKGTRLEAGLSQQALARLAGISRQAYSALESGSSNPSTEVALRLARALKTSVDHLFSLPE | -1.09
25 | HMVAMLDASYRGVMQTISTLLAQGNTERAYDEAVNARGQMSKQQWNNLANLIWERTGQKIDSGVSYK | 0.367
26 | HMLDQSYYETANEIISRYPLEEKSLIPIIQDIQATYRYLPPDLLDYVAKKIGITETKAYSVASFYENFSF | -0.721
27 | HMSPIPLPVERAIHKLGSDISLARRRRHISQASLAERMGASLSTVRRMEKGDVRVPIHFFARALHVFG | 0.123
28 | HMAPLATLEAGEDGSVKLPNLAGHSIREVAAALGGAKLSLIPIGSGTSWKQTPAPGAVLHSGDTVTVYF | 0.243
29 | HMDTAEQNWRLRGKLVTLGLNARQIRMALASHAPRYLEDNIAVVERDLAAGKVRNLPAYLLAALREDYRP | -1.86
30 | HMDIIIEEGIDESLSTDDAILDLLGRASDAFSNAQKALLEGDLGSYQKLIEQAERLVKKATELLGENN | -0.377
31 | HMSVLRLGNRGPDVRKLQLLLNSTLVPSPQLTVDGDFGKRTEQAVVTFQQMRGLPQDGIVGQRTWALLGQT | -0.652
32 | HMEKEFLFNGGKVVMNYEADRIQIMHDTKPGQDVITLMKKNGFKWSPFNKAWQRQITANAIYTTKHLINQ | -1.71
33 | HMSGAWEVGLLRQFTDWMGTQYNAYAGRNFDAITVAQVAEKNPELLTPFVESFFKERVEPALAAG | -1.08
34 | HMAVVQMVDRPGGLDELLKDVVRAGVNFANAYGRTASDGNSAFFVIDIQDIPGARQKLADVGLQILADEAV | -0.383
35 | HMTAYENSIPLNWVIQKGDAKGLPLSANTARLLIDIVGIDLMDLDHELEKISLYLSGESITEEMIKEHIRG | -0.709
36 | HMPLSLESVSEGGRNDTAARIAGYLIAKGLNVDFARFFLQSWNTKNKPPLDDTEIDTIVNSIMKTHERKNQ | -0.858
37 | HMEEVRFPLKKEILLWALKEAQVDEDEVFRKFTNLEKWINGEKHPTFKQIESLANYLKIPFGYMFLEKPPI | -1.02
38 | HMQENDLGAVEKIVDDVLHDPKNAQAVADFKAGSEKVLGFLTGQVMKASRGKANPSVVQEVLRQKLKN | -0.314
